In general, Kd refers to the constant that tells how readily two partners part at equilibrium. Low readings indicate tighter binding, high ones weaker binding. The term IC50 denotes the point on the concentration scale where inhibition reaches its midpoint.

The target in experiment [1] is T1, E. coli β clamp (β subunit of DNA polymerase III, dnaN gene product), N-tagged (E. coli, UniProt P0A988 1-366).
T1 construct: The dnaN gene was cloned in pET15b and expressed in BL21 E. coli; also called β ring; β protein; not shown: N-terminal tag from the pET15b vector (N-tagged protein, enriched on Ni-NTA)
The experiment in a line: SPR competition on immobilised P1; ΔG = -RT ln Ki.

Experiment [2] concerns the target T1, E. coli β clamp (β subunit of DNA …). Put plainly: SPR competition on immobilised P1.
Experiment [3] shares this target. The experiment in a line: ITC, peptide 400 µM into β ring 30 µM, 25° C.
The target is the same in experiment [4]. Put plainly: SPR direct binding: β protein (0.125 µM to 2 µM) injected on immobilised P1, 1:1 Langmuir model.
The target is the same in experiment [5]. Put plainly: SPR competition (Biacore 3000): β ring 0.25 µM mixed with the challenger, injected on immobilised P1. (In general: In SPR one partner is held on a chip, and binding of the other changes the refractive index at the surface.)
The target of experiment [6] is T2, E. coli β clamp (β subunit of DNA polymerase III, dnaN gene product) (E. coli, UniProt P0A988 1-366).
T2 construct: Homodimeric ring; N-tagged protein expressed in BL21 E. coli and purified on Ni-NTA and MonoQ; also called β ring; β protein; not shown: N-terminal tag from the pET15b plasmid
The experiment in a line: SPR competition; ΔG = -RT ln Ki.

Experiment [7] concerns the target T2, E. coli β clamp (β subunit of DNA …). Put plainly: SPR competition: peptide with β ring injected on immobilized P1.
For experiment [8] the target is unchanged. Described as above. This is another data set of the same source.
Experiment [9] has the same target. The description is as above. This is another data set of the same source.
Experiment [10] concerns the target T1, E. coli β clamp (β subunit of DNA …). The experiment in a line: SPR competition against P1.
For experiment [11] the target is unchanged. The experiment in a line: cell-based or functional assay.

Read-outs that look alike come from different tables or passages of the source. Square brackets hold non-standard residues; d marks the D form. Cha = N[C@@H](CC1CCCCC1)C(=O)O

T2 sequence (P0A988 whole entry): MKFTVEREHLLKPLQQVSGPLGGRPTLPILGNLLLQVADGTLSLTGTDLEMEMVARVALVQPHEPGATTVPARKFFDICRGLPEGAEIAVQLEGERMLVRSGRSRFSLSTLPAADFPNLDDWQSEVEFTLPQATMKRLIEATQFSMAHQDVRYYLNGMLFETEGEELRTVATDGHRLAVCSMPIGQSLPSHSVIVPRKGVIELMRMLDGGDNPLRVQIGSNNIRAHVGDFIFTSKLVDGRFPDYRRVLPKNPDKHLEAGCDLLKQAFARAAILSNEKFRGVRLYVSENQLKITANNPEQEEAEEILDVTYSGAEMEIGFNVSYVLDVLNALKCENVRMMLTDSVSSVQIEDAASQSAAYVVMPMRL
T1 sequence (P0A988 whole entry): as above

B1: P1, natural C-terminal heptapeptide of E. coli DNA polymerase IV (RQLVLGL) (peptide)
peptide: H-RQLVLGL-OH
notes: Used free in solution as challenger and immobilised on the SPR chip; the way of immobilisation is not described; also called natural Cter heptamer; natural heptapeptide
Consider B1, for which the ΔG in experiment [1] was -7.06 kcal/mol. Also, the “fold less efficient binding than the whole polymerase (PolIV)” value in [2] turned out to be 30 fold. The equilibrium dissociation constant (Kd) was 1000 to 2000 nM in experiment [3] and 285 nM in experiment [4]. In experiment [5], this molecule returned an IC50 of 8850 nM.

B2: P7, Ac-Gln-Cha-Asp-Leu-Phe-OH (peptide)
peptide: Ac-Q[Cha]DLF-OH
SMILES: CC(=O)N[C@@H](CCC(N)=O)C(=O)N[C@@H](CC1CCCCC1)C(=O)N[C@@H](CC(=O)O)C(=O)N[C@@H](CC(C)C)C(=O)N[C@@H](Cc1ccccc1)C(=O)O
notes: X stands for the non-natural residue; also called Ac Q ChaDLF; AcQChaDLF
With B2, the ΔG in experiment [6] is -9.42 kcal/mol. The IC50 in [7], in experiment [8] and in [9] was 170 nM in each case.

B3: P7 (Ac Q Cha DLF) (peptide)
peptide: Ac-Q[Cha]DLF-OH
SMILES: CC(=O)N[C@@H](CCC(N)=O)C(=O)N[C@@H](CC1CCCCC1)C(=O)N[C@@H](CC(=O)O)C(=O)N[C@@H](CC(C)C)C(=O)N[C@@H](Cc1ccccc1)C(=O)O
notes: also called Ac-Gln-Cha-Asp-Leu-Phe-OH
With B3, in experiment [10], the “fold decrease in affinity against P14” value is 2 fold. Moreover, the “fold increase in the interaction against P6” value in [2] is 6 fold. The “IC50, Pol IV based biochemical assay (inhibition of β dependent Pol IV elongation)” value in experiment [11] worked out at 2800 nM.
